Test results reported in patent publication US20200323888A1, “INHIBITORS” (VESTLANDETS INNOVASJONSSELSKAP AS, priority 2017, published 2020).
Primed or numbered codes have the meaning given here. Ends that are not written are not given here. Ac′ = acetamide linker; CoA = coenzyme A

What was measured:
NatA = biological target: T1, NatA (Homo sapiens, UniProt P41227); settings: NatA complex; Foyn et al. 2013; cited from earlier work
T1 construct: endogenous in cells
T1 sequence (P41227 1-235): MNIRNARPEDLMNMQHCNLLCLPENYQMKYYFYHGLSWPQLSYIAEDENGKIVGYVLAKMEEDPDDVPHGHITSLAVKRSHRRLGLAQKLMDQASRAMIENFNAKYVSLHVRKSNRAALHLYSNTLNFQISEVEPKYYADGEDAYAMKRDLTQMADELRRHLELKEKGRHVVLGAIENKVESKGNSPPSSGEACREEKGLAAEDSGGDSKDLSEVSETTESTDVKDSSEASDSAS
T1 sequence (Q9BXJ9 1-866 partner): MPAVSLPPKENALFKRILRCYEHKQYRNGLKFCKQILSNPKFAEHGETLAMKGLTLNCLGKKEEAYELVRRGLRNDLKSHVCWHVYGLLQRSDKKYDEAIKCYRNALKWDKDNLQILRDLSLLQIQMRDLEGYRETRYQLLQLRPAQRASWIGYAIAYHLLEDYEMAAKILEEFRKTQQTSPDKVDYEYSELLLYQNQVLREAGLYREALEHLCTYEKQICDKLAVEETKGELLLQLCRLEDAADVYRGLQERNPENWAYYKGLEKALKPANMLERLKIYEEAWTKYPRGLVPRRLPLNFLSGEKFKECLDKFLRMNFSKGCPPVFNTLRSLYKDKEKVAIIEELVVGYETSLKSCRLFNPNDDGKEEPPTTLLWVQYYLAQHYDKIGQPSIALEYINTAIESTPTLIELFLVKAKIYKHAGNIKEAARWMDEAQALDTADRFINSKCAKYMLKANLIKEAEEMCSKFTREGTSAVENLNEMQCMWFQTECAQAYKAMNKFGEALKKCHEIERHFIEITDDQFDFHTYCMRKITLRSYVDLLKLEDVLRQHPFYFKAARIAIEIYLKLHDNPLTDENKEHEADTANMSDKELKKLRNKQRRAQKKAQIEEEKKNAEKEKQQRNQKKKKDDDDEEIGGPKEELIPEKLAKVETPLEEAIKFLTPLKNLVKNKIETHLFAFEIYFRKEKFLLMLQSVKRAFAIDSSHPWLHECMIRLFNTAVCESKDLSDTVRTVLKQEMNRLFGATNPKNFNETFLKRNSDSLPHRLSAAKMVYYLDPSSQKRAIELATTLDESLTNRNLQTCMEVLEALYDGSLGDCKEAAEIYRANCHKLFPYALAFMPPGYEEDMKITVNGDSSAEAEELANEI

Naa80 [1] = biological target: T2, Naa80 (Homo sapiens, UniProt Q93015); test: Naa80 substrate screening assay (peptide acetylation by purified Naa80); assay type: biochemical; settings: Naa80 mediated acetylation of 24-mer peptide substrates
T2 construct: The PCR product containing the CDS was inserted into the TOPO TA vector; made in house; host or cells: E. coli BL21 Star (DE3)
T2 sequence (Q93015 1-308 isoform Q93015-2): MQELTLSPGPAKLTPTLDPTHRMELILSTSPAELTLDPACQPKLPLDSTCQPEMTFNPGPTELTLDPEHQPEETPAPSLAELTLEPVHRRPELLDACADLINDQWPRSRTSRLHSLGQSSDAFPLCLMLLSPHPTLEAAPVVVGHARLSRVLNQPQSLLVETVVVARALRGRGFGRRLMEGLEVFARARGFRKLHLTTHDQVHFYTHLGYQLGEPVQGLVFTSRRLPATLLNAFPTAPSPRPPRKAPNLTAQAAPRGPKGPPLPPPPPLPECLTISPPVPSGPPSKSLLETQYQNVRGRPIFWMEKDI
Text: In order to investigate the in vitro activity of Naa80 further, an enzyme activity screening assay on purified Naa80 was undertaken using a broad substrate library (including amino acids, nucleosides, coenzymes, amines, saccharides, vitamins, antioxidants and peptides) modified from Kuhn et al. (Kuhn et al. (2013) “Broad-substrate screen as a tool to identify substrates for bacterial Gcn5-related N-acetyltransferases with unknown substrate specificity”. Protein Science 22(2):222-230). Among all of the potential substrates tested, only the peptides with N-terminal sequence of MDEL24 (SEQ ID NO: 45), DDDI24 (SEQ ID NO: 41) and EEEI24 (SEQ ID NO: 40) were acetylated, as shown in the following table:
The 24-mer substrate peptides differed in their 7 N-terminal amino acids while the 17 C-terminal residues (RWGRPVGRRRRPVRVYP, SEQ ID NO: 39) were kept constant: EEEI24 (EEEIAAL, SEQ ID NO: 40), DDDI24 (DDDIAAL, SEQ ID NO: 41), MDDD24 (MDDDIAA, SEQ ID NO: 42), SESS24 (SESSSKS, SEQ ID NO: 43), AVFA24 (AVFADLD, SEQ ID NO: 44), MDEL24 (MDELFPL, SEQ ID NO: 45), MELL24 (MELLSPP, SEQ ID NO: 46), MLGT24 (MLGTGPA, SEQ ID NO: 47), MTNK24 (MTNKSSL, SEQ ID NO: 48), MLGP24 (MLGPEGG, SEQ ID NO: 49), MAPL24 (MAPLDLD, SEQ ID NO: 50), MKKS24 (MKKSYSG, SEQ ID NO: 51).
Both MDEL (p65, SEQ ID NO: 8) and MDDD24 (unprocessed β-actin, SEQ ID NO: 42) represent cellular NatB substrates.

Naa80 [2] = biological target: T2, Naa80; test: as above; assay type: biochemical; settings: linear range of enzyme concentration
Naa50 (human) = Naa50 (human) (UniProt Q9GZZ1); test: Ki calculated by Cheng-Prusoff from IC50 of Nt-acetylation inhibition assay
Naa60 = Naa60 (Homo sapiens, UniProt Q9H7X0); test: as above
[3] = biological target: T3, NatA complex (Naa15-Naa10) (human, UniProt P41227 1-235; Q9BXJ9 1-866); test: as above
T3 sequence (looked up) 1: T1 sequence (P41227 1-235)
T3 sequence (looked up) 2: T1 sequence (Q9BXJ9 1-866 partner)

NatB = NatB (Homo sapiens, UniProt P61599); test: as above
Sequence of NatB (P61599 whole entry): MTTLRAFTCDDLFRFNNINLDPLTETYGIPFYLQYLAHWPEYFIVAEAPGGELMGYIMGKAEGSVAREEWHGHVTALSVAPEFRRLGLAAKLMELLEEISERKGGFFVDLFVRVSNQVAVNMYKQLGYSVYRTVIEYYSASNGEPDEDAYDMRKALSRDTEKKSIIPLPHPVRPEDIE

Naa40 = Naa40 (Homo sapiens, UniProt Q86UY6); test: as above
Naa30 = Naa30 (UniProt Q147X3); test: as above
Sequence of Naa30 (Q147X3 whole entry): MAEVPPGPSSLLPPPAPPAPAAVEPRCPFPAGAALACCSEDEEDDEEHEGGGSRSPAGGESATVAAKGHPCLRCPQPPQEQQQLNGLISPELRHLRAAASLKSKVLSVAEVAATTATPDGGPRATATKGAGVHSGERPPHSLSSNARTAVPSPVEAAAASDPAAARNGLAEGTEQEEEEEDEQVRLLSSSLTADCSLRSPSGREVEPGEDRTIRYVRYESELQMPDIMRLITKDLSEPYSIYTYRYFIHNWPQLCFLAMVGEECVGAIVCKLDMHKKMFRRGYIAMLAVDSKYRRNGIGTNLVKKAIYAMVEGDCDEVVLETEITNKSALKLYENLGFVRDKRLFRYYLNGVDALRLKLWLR

Naa10 (monomeric) [4] = biological target: T4, Naa10 (monomeric) (human, UniProt P41227 1-235, limits assumed); test: as above
T4 construct: also called hNaa10; Ard1
T4 sequence (looked up): T1 sequence (P41227 1-235)

[5] = biological target: T3, NatA complex (Naa15-Naa10); test: comparison of Ki values from Nt-acetylation inhibition assays
[6] = biological target: T3, NatA complex (Naa15-Naa10); test: cell-based or functional assay
Naa10 = biological target: T5, Naa10 (Homo sapiens, UniProt P41227); settings: hNaa10, catalytic subunit of NatA; Foyn et al. 2013; cited from earlier work
T5 sequence (P41227 1-235): T1 sequence (P41227 1-235)

Naa80 [7] = biological target: T2, Naa80; test: Nt-acetylation inhibitor assay for Naa80; assay type: biochemical; settings: Naa80
Experimental: FIG. 10: (A) IC50 values for inhibitors measured in an Nt-acetylation inhibitor assay for Naa80. (B) Ki-values for CoA-Ac-DDDI-NH2 (SEQ ID NO: 6) for different human NATs measured in an Nt-acetylation inhibitor assay. All reactions were performed at least three times and in triplicate; errors bars represent standard deviation of each measurement.
The IC50 values for these compounds were tested as described in Foyn H, et al. (2013) “Design, Synthesis, and Kinetic Characterization of Protein N-Terminal Acetyltransferase Inhibitors”. ACS Chem Biol 8:1121-1127; and Foyn H, et al. (2017) “DTNB-Based quantification of in vitro enzymatic N-terminal acetyltransferase activity”, Methods Mol. Biol. 1574:9-15. Briefly, a colorimetric acetylation assay, 5,5′-dithiobis-(2-nitrobenzoic acid) (DTNB) assay was used to measure the catalytic activity of NATs after incubation with NAT inhibitors. In the DTNB assay, thiols present in the enzymatic product, CoA, cleaves DTNB and produces 2-nitro-5-thiobenzoate (NTB-), which absorbs light with a wavelength of 412 nm. NTB- forms in a 1:1 molar ratio to the thiol groups present in the sample. Therefore, NTB- was quantified by measuring the absorbance at 412 nm and indirectly measures peptide Nt-acetylation. […] After 30 min-60 min incubation at 37° C., the enzyme activity was quenched with quenching buffer (3.2 M guanidinium-HCl, 100 mM sodium phosphate dibasic pH 6.8). Triplicates were run for all positive samples, while negative controls were duplicated. As a negative control, reactions without enzyme were incubated at 37° C. before the reaction was quenched and added enzyme. In order to measure CoA production, 2 mM DTNB (dissolved in 100 mM sodium phosphate dibasic pH 6.8 and 10 mM EDTA) was added to the quenched reaction and the absorbance at 412 nm was measured with a spectrophotometer (Epoc). Background absorbance (determined in negative controls) was subtracted from the absorbance determined in each individual reaction. Thiophenolate production was quantified assuming ε=13.7×103 M−1 cm−1. For NatA and NatB enzyme complex inhibition, immunoprecipitation was performed using Naa15 ab (custom made, Arnesen T, Anderson D, Baldersheim C, Lanotte M, Varhaug J E, Lillehaug J R. (2005) Identification and characterization of the human ARD1-NATH protein acetyltransferase complex. Biochemical J 386(Pt 3):433-43.) or Naa20 ab (Nat5, abnova) respectively and protein A/G magnetic agarose beads (Millipore). A similar Nt-acetylation reaction was performed as previously described and the enzymatic activity was quenched with a final concentration of 1% TFA and analyzed by HPLC (Evjenth R, Van Damme P, Gevaert K, Arnesen T (2013) HPLC-based Quantification of in vitro N-terminal Acetylation. Methods Mol Biol 981:95-102.).
We then pursued Naa80 bisubstrate analogue inhibitors based on the results of the substrate screening and the sequences of the cellular substrates processed β- and γ-actin. We synthesized bisubstrate conjugates of Coenzyme A coupled to the tetrapeptides MDEL-NH2 (SEQ ID NO: 8), DDDI-NH2 (SEQ ID NO: 6), EEEI-NH2 (SEQ
ID NO: 7), and MLGT-NH2 (SEQ ID NO: 52) via an acetamide (Ac) linker.
The following additional Naa80 bisubstrate analogue inhibitors were produced and tested as described above: […]

Naa50 = biological target: T6, Naa50 (Homo sapiens, UniProt Q9GZZ1); settings: NatE/hNaa50; Foyn et al. 2013; cited from earlier work
T6 sequence (Q9GZZ1 1-169): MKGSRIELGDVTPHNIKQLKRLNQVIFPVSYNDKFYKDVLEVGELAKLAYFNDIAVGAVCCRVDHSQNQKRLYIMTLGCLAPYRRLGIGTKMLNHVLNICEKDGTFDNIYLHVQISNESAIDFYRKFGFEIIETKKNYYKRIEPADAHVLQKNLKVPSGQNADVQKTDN

[8] = biological target: T7, MBP-HishNAA80 fusion protein (MBP-Naa80) (human, UniProt Q93015-2 1-308); test: Ki from Nt-acetylation inhibitor assay, panel of human NATs
T7 construct: also called hNAA80/hNAT6; Fus-2/NAT6; not shown: MBP-His tag encoded by the pETM-41 vector
T7 sequence (looked up): T2 sequence (Q93015 1-308 isoform Q93015-2)

Naa10 (monomeric) [9] = biological target: T4, Naa10 (monomeric); test: as above
[10] = biological target: T7, MBP-HishNAA80 fusion protein (MBP-Naa80); test: cell-based or functional assay
[11] = biological target: T7, MBP-HishNAA80 fusion protein (MBP-Naa80); test: cell-based or functional assay; remark: listed apart in the source

CC(C)(COP(=O)(O)OP(=O)(O)OCC1OC(n2cnc3c(N)ncnc32)C(O)C1OP(=O)(O)O)C(O)C(=O)NCCC(=O)NCCSCC(=O)N[C@@H](CO)C(=O)N[C@@H](CCC(=O)O)C(=O)N[C@@H](CO)C(=O)N[C@@H](CO)C(N)=O (some centres unmarked) [CoA-Ac-SESS]
IC50 (NatA): 15.1 µM

MDEL24: 24-mer substrate peptide: N-terminal MDELFPL (SEQ ID NO: 45) plus constant RWGRPVGRRRRPVRVYP (MDELFPLRWGRPVGRRRRPVRVYP)
Product formation (Naa80 [1]): 119 (±5.61) μM | higher product formation compared to second best substrate MDDD24 (Naa80 [2]): 5 fold

CoA-Ac-SSNleP-NH2 (peptide)
Ki (Naa50 (human)): 17.7 µM | Ki (Naa60): 3.1 µM | Ki [3]: 0.143 µM | Ki (NatB): 41.6 µM | Ki (Naa40): 41.9 µM | Ki (Naa30): 132 µM | Ki (Naa10 (monomeric) [4]): 98.9 µM | fold more potent towards NatA than all the other NATs tested [5]: > 100 fold | IC50 (µM), Nt-acetylation inhibition [6]: 1.46 µM

CC[C@H](C)[C@H](NC(=O)[C@H](CCC(=O)O)NC(=O)[C@H](CCC(=O)O)NC(=O)[C@H](CCC(=O)O)NC(=O)CSCCNC(=O)CCNC(=O)C(O)C(C)(C)COP(=O)(O)OP(=O)(O)OCC1OC(n2cnc3c(N)ncnc32)C(O)C1OP(=O)(O)O)C(N)=O (some centres unmarked) [CoA-Ac-EEEI-NH2]
IC50 (Naa10): 10.1 µM | IC50 (Naa80 [7]): 1.16 µM

CoA-Ac-MLG7: Previously disclosed bisubstrate analogue inhibitor of NatE/hNaa50 (SEQ ID NO: 49), Foyn 2013 ({CoA-Ac′}-MLGPEGG)
IC50 (Naa50): 1.29 µM

B1: CoA-Ac-DDDI-NH2 (peptide)
peptide: {CoA-Ac}-DDDI-NH2
Ki [8]: 0.043 µM | fold reduced potency for Naa10 compared to Naa80 (Naa10 (monomeric) [9]): 88 fold | fold more potent than CoA-Ac-EEEI-NH2 (IC50) [10]: 3 fold | fold more potent than CoA-Ac-MDEL-NH2 (IC50) [10]: 3.3 fold | IC50 (µM), Nt-acetylation inhibition [11]: 0.38 µM
